Data on one molecule can be found in patent US12448462 (dated 2025).

The target in experiment [1] is T1, MUC1 (MUC1-C) on cells (UniProt P15941 24-1255). As to the kind of experiment: flow.
Experiment [2] has as its target T1, MUC1 (MUC1-C) on cells. As to the kind of experiment: flow. This is another data set of the same source.

A word on the EC50: it is the concentration needed to bring the measured effect to its halfway point. A higher EC50 goes with weaker potency.

Where two headings read alike, the source gives them in different places.

B1: T4E3 scFv-Fc (Fc fusion)
VH: QVQLVQSGGGLVQPGGSLRLSCAASGFTFDDYAMHWVRQAPGKGLEWVSGISWNSGSIGYADSVKGRFTISRDNAKNSLYLQMNSLRAEDTALYYCAKDIGSGSYYNYYYGMDVWGQGTTATISS
VL: SSELTQDPAVSVALGQTVRITCQGDSLRSYYASWYQQKPGQAPVLVIYGKNSRPSGIPDRFSGSNSGSTASLTITGAQAEDEADYYCNSRDRYGNSLVIFGGGTKLTVL
With B1, the EC50 in the experiment with MUC1 (MUC1-C) on cells [1] and with MUC1 (MUC1-C) on cells [2] was 0.033 µg/mL in each case.
